Reference: article PMC4351136 (The FEBS journal, 2015)

Molecular target: T1, domain V of human β2GPI (human, UniProt P02749 263-345)
T1 sequence (looked up): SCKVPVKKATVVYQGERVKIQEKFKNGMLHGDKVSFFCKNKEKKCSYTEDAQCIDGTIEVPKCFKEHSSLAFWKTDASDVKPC
Experiment: ITC

B1: Asn36/Asp mutant of mouse A1 (domain or fragment)
chain: not shown
Kd: 14 µM
dH: -4.3 ± 0.2 kcal/mol
stoichiometry N: 1.04 ± 0.03
